What all share (assay): cell-based or functional assay
For assay [1], the target named is PrP^Sc of 263K scrapie-infected Syrian golden hamsters (Syrian golden hamster) (UniProt P04273).
In assay [2] the target is human sporadic CJD (sCJD) brain homogenate PrP-res (human) (UniProt P04156).
For assay [3], the target named is sheep ARQ scrapie brain homogenate PrP-res (sheep) (UniProt P23907).

In assay [1], monoclonal antibody 15B3 gave an IP-RT-QuIC (ThT fluorescence): lowest brain dilution detected in human plasma (dilution of brain tissue) of 1e-10; an IP-RTQ speed and sensitivity with higher 15B3 content on beads (fold higher 15B3 on beads) of 12. In assay [2], the eQuIC: lowest PrP-res amount detected in 0.5 ml human cerebrospinal fluid is 10 ag and the eQuIC: lowest PrP-res amount detected in 0.5 ml human plasma was 10 ag. Also, the eQuIC ("20×" 15B3 beads): lowest PrP-res amount detected in 0.5 ml plasma in assay [3] is 100 ag.

These data come from patent publication US20130288389A1.
